# According to the nanobody polyreactivity screen of Harvey et al. (2022):
# Test: yeast display, Sf9 membrane polyspecificity reagent, FACS + sequencing; frameworks hold sequencing errors
# Outline: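 After 36–48 hours of galactose induction, yeast (Saccharomyces cerevisiae BJ5465) displaying a synthetic nanobody library were stained at 4 °C for 1 hour with 10% biotinylated, detergent-solubilized Sf9 membrane reagent. Streptavidin microbeads enriched the stained cells before FACS sorting into low and high (top ~1%) gates on anti-HA and streptavidin fluorescence. Each clone's polyreactivity label reflects its gate of origin.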
row,Sequence,polyreactivity (PSR sort gate)
1,QVQLVESGGCLVQAGGSLRLSCAASGFTFPNAMGWYIQAPGKERELDATISSSGGSTYYADSVKGRFTISRDNAKNTVYLQMNSLKPEDTAVFYCAARTRQYLIYRAYRYDYWGQGTQVTVSS,low polyreactivity
2,QVQLVESGGGLVQAGGSLRLRCAASGTFYLYAMGWYRQAPWKQRELVAAISGSGSTNYADSVKGRFTISRDNAKNTVYLQMNSLKPEDTAVYYCAAYQRYDSLTGARYEYDYWGQGTQVTVSS,low polyreactivity
3,QVQLVESGGGLVQAGGSLRLSCADSGFIIFCYAMGWYRQAPGKERELVAAITSGGSTYYAYSVKGRFTISRDNAKNTVYLQMNSLKPEDTAVYYCAAVRWYGSKRYGYWGQGTQVTVSS,high polyreactivity
4,QVQLQESGGDLEQAGGSLRLSCTASGTISDVRVMGWYRQAPGKERELVATISYVTITYYADSVKGRFTISRDSEKHRVSADDEPETGRYGGVLLRYYWGLGTQVTVSS,low polyreactivity
5,QVQLVESGGGLVQAGGSLRLSCAASGSISVPNAMGWYRQAPGKERELVAGITSGDSTHYADSVKGRFSISRDNAKNTVYIQMISLKPEDTAVYYCAAKVPEPPSLDESDYWGQGTQVTVSA,low polyreactivity
6,QVQLVESGGGLVQAGGSLRLSCAASGSILQTNVMGWYRQAPGKEREFVAAIRWSTVSTYYADSVKGRFTISRDNAKNTVYLQMKSLKPEDTAVYYCASAKSWYSYKMDYWGQGTQVTVSS,low polyreactivity
7,QVQLVESGGGLVQAGGSLRLSSAASGIICAIYAMGWYRQAPGKERELVAAITWRGGSTYYADSVKGRFTISRDNAKNSVYFQKNRLKPEDTAVYYCAAVTKSLYGYDYWGQGTQVNVSS,low polyreactivity
8,QVQLVESGGGLVQAGGSLRLSCAASGSIFPRNTMGWYRQAPGKERELVAAMSSGASTYYADSVKGRFTISRDNAKNTVYLQMNSLKPEDTAVYYCAKRYQDTSPKDGENEYWGQGTQVTVSS,low polyreactivity
9,QVQLVESGGGLVQAGGSLRLSCAASGRTFRWYAMGWYRQAPGKERELLASITWSGGSTYYADSVKGRFTISRDNAKNTVYLQMNSLKPEDTAVYYCAAVGRQSNYYVDYDYWGQGTQVTVSS,high polyreactivity
10,QVQLVESGGGLVQAGGSLRLSCAASGSTFKIYAMGWYRQAPGKERELVARITGRGGSTYYADSVKGRFTISRDNAKNTVYLQMNSLKPEDTAVYYCAARTYYVPYYYWGQGTQVTVSS,high polyreactivity
11,QVQLVESGGGLVQAGGSLRLSCAASGITFYGYAMGWYRQAPGKERELVARITASGGSTYYADSVKGRFTISRDNAKNTVYLQMKSLKPEVTAVYYCAKDWYRYSRFDYWGQGTQVTVSS,high polyreactivity
12,QVQLVESGRGLVHAGGSIRLSCAASGRIFGLYAIGWYRQAPGKERELVASINSRGGSTNYAVSVKGRFTISRDNAMNTVYLQMNSLKPEDTAVYYCNARIVYAYQRYYWGQGTHVTVSS,high polyreactivity
13,QVQLVESGGGLVQAGGSLRLSCAASGGIYRYYAMGWYRQAPGKERELVAAISTSGTDTYYADSVKGRFTISRDNAKNTVYVQMNSLIPEDTAVYYCAAELYRYGFYEPIYPYSYDYWGQGTQVTVSS,low polyreactivity
14,QVQLVESAGGLVQAGGSLRLSCAASGSIFGSNAMGWYRQAPGKERELVASITSSGGSTHYADSVKGRFTISRDNAKNTVYLQMNSLKPEDTAVSYCATRAYGYYRWLYDYWGQGTQVTGSS,low polyreactivity
15,QVQLVESGGGLVQAGGSLRLSCAASGIIFRYNAMGWYSQAPGKDRELVAAITYRGGSTRYADSVKGRFTISRDNAKNTVYLQMNSLKPEDTAVYYCNAQRRTYIYDYWGQGTQVTVSS,high polyreactivity
16,QVQLVESGGGLVQAGGSLRLSCAASGSIFTVNAMGWYRQAPGKERELVATISVTGGSTYADSVKGRFTISRENAKNTVYLQMNSLKPEDTAVYYCAADKTVRWDFDYRGQGTQVTVSS,low polyreactivity
17,QVQLQESGGGLEQAGGSLRKSCAANGNIFDADIVGRYRQAPGKKPELVDSITDGGITNYADSVKGRFTISRDNAKYTVYLQMNIQNPEDTAVYYCASIAYPDIPTFFDYYSYFFYWGQGTQVTVSS,high polyreactivity
